Results from paper PMC10872586 (Cell reports, 2023).
Where a chain is given by its changes, count along the chain named.

B1: CR9114 Fab (positive control) (Fab, V domains shown)
VH: QVQLVQSGAEVKKPGSSVKVSCKSSGGTSNNYAISWVRQAPGQGLDWMGGISPIFGSTAYAQKFQGRVTISADIFSNTAYMELNSLTSEDTAVYFCARHGNYYYYSGMDVWGQGTTVTVSS
VL: QSALTQPPAVSGTPGQRVTISCSGSDSNIGRRSVNWYQQFPGTAPKLLIYSNDQRPSVVPDRFSGSKSGTSASLAISGLQSEDEAEYYCAAWDDSLKGAVFGGGTQLTVL
notes: source: Expi293F, co-transfected, purified (CaptureSelect CH1-XL)
B2: CR9114 gHC Fab VL A96F (Fab, V domains shown)
VH: QVQLVQSGAEVKKPGSSVKVSCKASGGTFSSYAISWVRQAPGQGLEWMGGIIPIFGTANYAQKFQGRVTITADKSTSTAYMELSSLRSEDTAVYYCARHGNYYYYYGMDVWGQGTTVTVSS
VL: B1 VL with Q1S, S2Y, A3V, A99F
notes: Kabat numbering; source: Expi293F, co-transfected, purified (CaptureSelect CH1-XL)
B3: CR9114 with germline heavy chain, Fab (Fab, V domains shown)
VH: B2 VH
VL: B1 VL with Q1S, S2Y, A3V
notes: also called CR9114 gHC; WT; source: Expi293F, co-transfected, purified (CaptureSelect CH1-XL)
B4: CR9114 gHC Fab VL A96W (Fab, V domains shown)
VH: B2 VH
VL: B1 VL with Q1S, S2Y, A3V, A99W
notes: as for B2
B5: CR9114 gHC Fab VL W91A (Fab, V domains shown)
VH: B2 VH
VL: B1 VL with Q1S, S2Y, A3V, W92A
notes: as for B2
B6: CR9114 gHC Fab VL A96Y (Fab, V domains shown)
VH: B2 VH
VL: B1 VL with Q1S, S2Y, A3V, A99Y
notes: as for B2
B7: CR9114 gHC Fab VL W91T (Fab, V domains shown)
VH: B2 VH
VL: B1 VL with Q1S, S2Y, A3V, W92T
notes: as for B2
B8: CR9114 gHC Fab VL W91R (Fab, V domains shown)
VH: B2 VH
VL: B1 VL with Q1S, S2Y, A3V, W92R
notes: as for B2

Legend:
[1] = biological target: mini-HA #4900 protein (Designed influenza A H1 HA stem #4900 …, stabilised, biotin at the BirA biotinylation site, conjugated to streptavidin-PE (for the yeast display assays only)); test: BLI; details: both partners purified
[2] = biological target: HA protein from H1N1 A/Solomon Islands/3/2006 (Influenza A virus (A/Solomon …, UniProt A7Y8I1, strain)); test: BLI; details: both partners purified

Binder | binding result [2] | other results
B1 | – | Kd [1]: 0.69 nM
B2 | no binding (tested: 300 nM) | –
B3 | – | Kd [2]: 2600 nM
B4 | no binding (tested: 300 nM) | –
B5 | no binding (tested: 300 nM) | –
B6 | no binding (tested: 300 nM) | –
B7 | no binding (tested: 300 nM) | –
B8 | no binding (tested: 300 nM) | –
